{"source": "patent US20080274959A1", "about": "“Actinomadura Chromoprotein, Apoprotein and Gene Cluster” (Wyeth, priority 2004, published 2008)", "key": {"p21−/− cells": {"tested_on": "p21−/− cells", "test": "Sensitivity of isogenic cell lines, p21−/−", "type": "cell-based, human", "source_text": "The p53/p21 checkpoint monitors the integrity of the genome and blocks cell cycle progression in the event of DNA damage. Disruption of the checkpoint by deletion of the p21 gene results in failure to arrest in response to DNA damage ultimately leading to cell death through apoptosis. Since loss of this checkpoint is a hallmark of cancer cells, an isogenic pair of cell lines, wherein one pair of the cell line (p21+/+) has an intact p21 gene and one member (p21−/−) has a deletion in the p21 gene, can be used to screen for potential anti-tumor compounds by identifying molecules that preferentially induce apoptosis in p21-deficient cells.\nThe Actinomadura sp. 21G792 chromoprotein was added to an isogenic pair of cell lines (p21+/+ and p21−/−)."}, "HT29": {"tested_on": "HT29", "test": "Potency against human tumor cell lines: HT29", "type": "cell-based", "conditions": "HT29, Colon"}, "SW620": {"tested_on": "SW620", "test": "Potency against human tumor cell lines: SW620", "type": "cell-based", "conditions": "SW620, Colon"}, "HN5": {"tested_on": "HN5", "test": "Potency against human tumor cell lines: HN5", "type": "cell-based", "conditions": "HN5, Head & Neck"}, "[1]": {"tested_on": "p53/p21 checkpoint in HCT116 (p21+/+ and p21−/−) cells", "test": "Induction of the G1/S (p53/p21) checkpoint, immunoblot", "type": "cell-based, human", "source_text": "HCT116 (p21+/+ and p21−/−) cells were exposed to the chromoprotein at various concentrations. […] Activation of the DNA damage checkpoint by the Actinomadura sp. […] 21G792 chromoprotein as shown by the cleavage of poly ADP ribose […] (PARP) (FIG. 23B). This is consistent with the lower IC50 value in the p21−/− cells."}, "[2]": {"tested_on": "LoVo, HCT116, HT29, LOX, HN5 and PC-3 tumors", "test": "In vivo anti-tumor activity, subcutaneous human tumor xenografts", "parameters": "species or system athymic (nude) mice", "conditions": "intravenous in saline, further doses on days 5 and 9; all six xenograft models", "description": "The human tumor cell lines or fragments LoVo (colon cancer); HCT116 (colon); HT29 (colon); LOX (melanoma); HN5 (head & neck); and PC-3 (prostate) were implanted under the skin of athymic (nude) mice and allowed to form a tumor mass. When the tumors reached a size of 90-200 mg, the saline control vehicle or various concentrations of the Actinomadura sp. 21G792 chromoprotein formulated in saline was administered intravenously to the mice. The mice received subsequent doses on days 5 and 9 and the relative tumor growth was observed. The results are shown in the graphs in FIG. 24 and FIG. 25. Inhibition of tumor growth of up to 80% for mice receiving the chromoprotein was observed."}, "KB": {"tested_on": "KB", "test": "IC50 against P-GP expressing cells: KB", "type": "cell-based", "conditions": "P-GP level −, mean of two independent experiments", "source_text": "(§1) Human PGP (MDR1) is an ATP-dependent efflux pump which is capable of transporting many drugs across cell membranes. High level expression of this protein has been linked to multiple drug resistance of tumors. […] The protein component of the chromoprotein probably protects the chromophore from drug efflux mediated by MDR1, and may be responsible for the beneficial antitumor effects in colon cell lines which often express MDR1."}, "KB-8-5": {"tested_on": "KB-8-5", "test": "IC50 against P-GP expressing cells: KB-8-5", "type": "cell-based", "conditions": "KB-8-5, P-GP level +; mean of two independent experiments", "source_text": "as §1"}, "HCT116 cells": {"tested_on": "HCT116 cells", "test": "Uptake of FITC-tagged protein, fluorescent microscopy / flow cytometry", "type": "cell-based, human", "conditions": "FITC-labeled", "source_text": "To determine the mechanism by which the chromoprotein enters cells and exerts its biological activity, the chromoprotein was labeled with a fluorescent tag (FITC) using EZ-Label fluorescent labeling kit (Pierce Biotechnology), according to the manufacturer's recommendation. […] Uptake of labeled material by HCT116 colon carcinoma cells was studied by fluorescent microscopy.\nTo determine whether an intact complex of chromophore and apoprotein is required for cellular and nuclear entry, the chromoprotein and apoprotein were labeled with FITC. Uptake of labeled material was studied by fluorescent microscopy.\nTo determine whether the entry of chromoprotein into cells is mediated by a saturable (e.g. cell surface receptor-dependent) process, HCT116 cells were incubated with FITC-labeled chromoprotein (FIG. 28, right panel) or apoprotein (FIG. 28, left panel) in the absence or presence of 10-fold excess of unlabeled reagent (unlabelled chromoprotein or apoprotein, respectively). Cells were analysed by fluorescent microscopy (left) or flow cytometry (right). […] Numbers in the histograms are mean channel numbers (FITC fluorescence).\nOther means by which a protein complex can enter cells is pinocytosis, where caveolae in the surface of the cell pinch off to form pinosomes that are free within the cytoplasm of the cell. Since pinocytosis is an energy-dependent process that requires a functional tubulin cytoskeletal network, we examined the effect of sodium azide, an energy uncoupling agent and nocodazole, an agent which disrupts the tubulin cytoskeleton on cellular uptake. HCT116 cells were treated with FITC-labeled apoprotein in the absence or presence of sodium azide or nocodazole."}}}
{"molecule": "Actinomadura sp. 21G792 chromoprotein: non-covalent complex of an apoprotein and a chromophore comprising a nine-membered enediyne, produced by Actinomadura sp. 21G792 (NRRL 30778) (protein) DTVTVNYDCVGYPSDIAVTIDAPATAGVGDTATFEVSSVVTTGAPQDLPAGEVVTDMAIVVGGAQSGTITASGLTNEATPAGQPVNMVGGEAQITFTSAGSVTFTPSTTTQVDNGAQCTVVGEAPVGATTVVS", "values": [{"measurement": "Selectivity Ratio", "setting": "p21−/− cells; IC50 p21+/+ versus p21−/−", "result": 13}, {"measurement": "IC50", "setting": "p21−/− cells; p21−/− isogenic cell line, Mean ± SD, n = 3", "result": "7000 ± 2000", "unit": "ng/mL"}, {"measurement": "IC50 higher for p21+/+ cells than for p21−/− cells", "setting": "p21−/− cells; text statement of the selectivity", "result": 13, "unit": "fold"}, {"measurement": "IC50", "setting": "HT29", "result": 8, "unit": "ng/mL"}, {"measurement": "IC50", "setting": "SW620", "result": 2, "unit": "ng/mL"}, {"measurement": "IC50", "setting": "HN5", "result": 4, "unit": "ng/mL"}, {"measurement": "induction of the p21 protein", "setting": "[1]", "result": "seen in the p21+/+ cells only"}, {"measurement": "phosphorylation of serine-15 of p53", "setting": "[1]", "result": "phosphorylation of the serine-15 amino acid residue in p53"}, {"measurement": "activation of the p53 checkpoint", "setting": "[1]; HCT116 p21+/+ and p21−/−, various concentrations", "result": "activation of the p53 checkpoint for all tested concentrations"}, {"measurement": "induction of apoptosis (PARP cleavage)", "setting": "[1]; p21−/− compared with p21+/+ cells", "result": "preferentially observed in p21−/− cells"}, {"measurement": "Inhibition of tumor growth", "setting": "[2]", "result": "up to 80%"}, {"measurement": "IC50", "setting": "KB", "result": 10, "unit": "ng/mL"}, {"measurement": "IC50", "setting": "KB-8-5", "result": 6, "unit": "ng/mL"}, {"measurement": "biological activity after FITC labeling", "setting": "HCT116 cells", "result": "No loss of biological activity"}, {"measurement": "uptake, apoprotein compared with chromoprotein", "setting": "HCT116 cells", "result": "similar"}, {"measurement": "cellular localisation of label", "setting": "HCT116 cells; incubation 3-6 hours, fluorescent microscopy", "result": "Most of the label appeared in the cytoplasm"}, {"measurement": "competition of uptake by 10-fold excess of unlabeled reagent", "setting": "HCT116 cells; microscopy or flow cytometry", "result": "No competition of label"}]}
